Like-named read-outs stand apart in the source and are kept apart here.
Assays:
Pum-HD [1] = molecular target: T1, Pum-HD (Drosophila melanogaster, UniProt P25822 1093-1426); assay: ITC
T1 sequence: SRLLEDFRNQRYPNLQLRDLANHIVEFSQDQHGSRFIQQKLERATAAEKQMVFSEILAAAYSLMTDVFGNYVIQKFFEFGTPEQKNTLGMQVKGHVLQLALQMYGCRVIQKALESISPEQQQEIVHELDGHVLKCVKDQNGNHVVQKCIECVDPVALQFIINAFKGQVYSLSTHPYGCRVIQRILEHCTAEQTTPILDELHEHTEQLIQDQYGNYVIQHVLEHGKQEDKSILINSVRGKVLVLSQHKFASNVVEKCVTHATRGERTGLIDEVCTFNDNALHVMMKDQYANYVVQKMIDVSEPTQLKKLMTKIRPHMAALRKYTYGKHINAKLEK

Pum-HD [2] = molecular target: T1, Pum-HD; assay: ITC; remark: listed apart in the source
Pum-HD [3] = molecular target: T1, Pum-HD; assay: ITC; remark: listed apart in the source
Brat-NHL [4] = molecular target: T2, Brat-NHL (Drosophila melanogaster, UniProt Q8MQJ9 756-1037); assay: ITC
T2 sequence: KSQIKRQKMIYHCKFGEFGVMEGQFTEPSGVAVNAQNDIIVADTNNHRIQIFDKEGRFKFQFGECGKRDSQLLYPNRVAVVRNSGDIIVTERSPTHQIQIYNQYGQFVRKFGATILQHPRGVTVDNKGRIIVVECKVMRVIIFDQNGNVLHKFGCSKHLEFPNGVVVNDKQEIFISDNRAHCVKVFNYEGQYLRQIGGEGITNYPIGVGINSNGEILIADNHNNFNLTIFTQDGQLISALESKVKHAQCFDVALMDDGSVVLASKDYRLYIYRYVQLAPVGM

Brat-NHL [5] = molecular target: T2, Brat-NHL; assay: ITC; remark: listed apart in the source
Brat-NHL [6] = molecular target: T2, Brat-NHL; assay: ITC; remark: listed apart in the source
[7] = molecular target: T3, HD domain of Pumilio (Pum-HD) (Drosophila, UniProt P25822 1093-1426); assay: SEC + SEC-MALS
T3 sequence (looked up): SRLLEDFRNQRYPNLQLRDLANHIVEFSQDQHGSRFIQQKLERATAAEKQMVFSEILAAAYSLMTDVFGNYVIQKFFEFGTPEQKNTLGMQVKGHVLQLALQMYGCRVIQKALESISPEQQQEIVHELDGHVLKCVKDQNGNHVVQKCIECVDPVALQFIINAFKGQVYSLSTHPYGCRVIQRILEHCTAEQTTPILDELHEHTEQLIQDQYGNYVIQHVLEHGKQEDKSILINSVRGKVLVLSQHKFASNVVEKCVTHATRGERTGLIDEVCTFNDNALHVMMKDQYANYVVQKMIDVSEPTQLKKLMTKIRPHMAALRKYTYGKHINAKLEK

Brat-NHL [8] = molecular target: T2, Brat-NHL; assay: ITC; remark: listed apart in the source
[9] = molecular target: T4, Pum-HD;Brat-NHL;Nanos-ZnF (Drosophila melanogaster;Drosophila …, UniProt P25822;Q8MQJ9;P25724 1093-1426;756-1037;301-392, ||); assay: SEC-MALLS, NMR, SAXS/SANS
T4 sequence 1: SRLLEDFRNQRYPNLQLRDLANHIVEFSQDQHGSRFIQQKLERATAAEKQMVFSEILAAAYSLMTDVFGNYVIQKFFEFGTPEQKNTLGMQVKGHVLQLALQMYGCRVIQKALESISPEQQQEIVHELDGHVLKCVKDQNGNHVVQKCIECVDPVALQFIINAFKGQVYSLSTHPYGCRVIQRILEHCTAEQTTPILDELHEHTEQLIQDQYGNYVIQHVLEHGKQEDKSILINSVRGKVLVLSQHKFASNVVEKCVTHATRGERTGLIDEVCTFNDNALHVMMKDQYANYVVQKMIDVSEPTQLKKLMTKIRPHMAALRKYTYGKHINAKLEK
T4 sequence 2: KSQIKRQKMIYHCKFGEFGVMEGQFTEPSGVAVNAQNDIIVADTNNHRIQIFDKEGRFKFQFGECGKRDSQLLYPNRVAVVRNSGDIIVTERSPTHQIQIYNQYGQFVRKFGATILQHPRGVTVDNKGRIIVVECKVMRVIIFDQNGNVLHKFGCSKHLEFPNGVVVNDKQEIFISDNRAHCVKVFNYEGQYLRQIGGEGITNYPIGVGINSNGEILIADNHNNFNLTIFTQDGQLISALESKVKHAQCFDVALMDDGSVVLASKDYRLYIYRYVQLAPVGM
T4 sequence 3: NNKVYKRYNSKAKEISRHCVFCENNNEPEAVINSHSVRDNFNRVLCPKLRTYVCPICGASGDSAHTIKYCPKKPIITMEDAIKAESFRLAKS

Pum-HD [10] = molecular target: T1, Pum-HD; assay: ITC; remark: listed apart in the source
Pum-HD [11] = molecular target: T1, Pum-HD; assay: ITC; remark: listed apart in the source
Brat-NHL [12] = molecular target: T2, Brat-NHL; assay: ITC; remark: listed apart in the source
Nanos-ZnF = molecular target: T5, Nanos-ZnF (Drosophila melanogaster, UniProt P25724 301-392); assay: ITC
T5 sequence: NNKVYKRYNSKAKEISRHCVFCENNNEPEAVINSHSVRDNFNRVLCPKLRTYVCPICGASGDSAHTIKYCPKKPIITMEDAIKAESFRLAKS

Brat-NHL [13] = molecular target: T2, Brat-NHL; assay: ITC; remark: listed apart in the source
Pum-HD [14] = molecular target: T1, Pum-HD; assay: ITC; remark: listed apart in the source
Pum-HD [15] = molecular target: T1, Pum-HD; assay: ITC; remark: listed apart in the source
Pum-HD [16] = molecular target: T1, Pum-HD; assay: ITC; remark: listed apart in the source

With UCGAAAAUUGUACAUAA (ssRNA) [NRE2 minus BoxA] the Kd (Pum-HD [1]) was 10 ± 0.3 nM and the Kd (Pum-HD [2]) was 11 ± 0.6 nM.

In the case of UUGUUG (ssRNA) [BoxA], the binding result (Pum-HD [3]) is reported as “no binding”, the Kd (Brat-NHL [4]) is reported as 800 ± 200 nM and the Kd (Brat-NHL [5]) is reported as 1000 ± 300 nM. For the same binder, the Kd (Brat-NHL [6]) was 1100 ± 300 nM.

UUGUUGUC (ssRNA) [BoxAext]: no binding (Pum-HD [3]).

B1: ZnF domain of Nanos (Nanos-ZnF) (domain or fragment, Drosophila, UniProt P25724 301-392, looked up)
chain: NNKVYKRYNSKAKEISRHCVFCENNNEPEAVINSHSVRDNFNRVLCPKLRTYVCPICGASGDSAHTIKYCPKKPIITMEDAIKAESFRLAKS
B1 was tested, and the “stoichiometry N” value [7] was 1.

UUGUUGUCGAAAAUUGUACAUAA (structured_RNA) [NRE2 (23-mer)] was tested, and the Kd (Brat-NHL [8]) was 900 nM, the Kd (Brat-NHL [4]) was 1200 ± 200 nM and the binding result [9] was “binds”. The Kd (Brat-NHL [5]) was 320 ± 100 nM, the Kd (Pum-HD [10]) was 2 nM and the Kd (Brat-NHL [6]) was 370 ± 100 nM. The Kd (Pum-HD [11]) was 15 nM, the Kd (Brat-NHL [12]) was 200 nM and the binding result (Nanos-ZnF) was “no binding”. It also gave a Kd (Brat-NHL [13]) of 1400 nM.

Work on UGUACAUA (ssRNA) [BoxB] yielded a Kd (Pum-HD [14]) of 8.1 ± 1.7 nM, a Kd (Pum-HD [15]) of 6.6 ± 4 nM and a Kd (Pum-HD [16]) of 2 ± 2 nM.

For UUGUUGUCGAAAAU (ssRNA) [NRE2 minus BoxB], the Kd (Pum-HD [15]) was 1000 ± 20 nM and the Kd (Pum-HD [16]) was 1200 ± 80 nM.

Reference: publication PMC8421216 (Nucleic Acids Research, 2020)
